Here are results for 80 sequences from the supplement of paper PMC10724198.

± gives the standard deviation of the averaged measurements.
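Note: PSI is a weighted mean of sequencing reads over stability bins, variants kept only with over 10 reads, mCherry proximal and sfGFP distal, peptide attached via GGGS linker.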

The subject of this data set is Saccharomyces cerevisiae. The data set can be described thus: protein stability index of tFT-peptide fusion (C-terminal peptide) (PSI (0-1 scale)); higher = more stable (slower turnover). The conditions noted are these: genetic background: wild type; temperature: 30 C.
SSSRCPRLPLPS showed a protein stability index of 0.6358 ± 0.0012.

SSSVLPESFSPS gave a protein stability index of 0.687 ± 0.036.

In turn, SSSYCHPSCVSC returned a protein stability index of 0.661 ± 0.14.

The sequence SSTALAFAPYLL had a protein stability index of 0.6894 ± 0.005.

Regarding SSTEYYDIRKIR, the protein stability index is 0.675 ± 0.025.

For SSTFPRPSLRPV, the protein stability index is 0.64 ± 0.091.

SSVRIGRNLYVW yielded a protein stability index of 0.754 ± 0.13.

Sequence SSVRPHPAPPHT yielded a protein stability index of 0.701 ± 0.01.

The sequence SSVSARHVPCSP registered a protein stability index of 0.689 ± 0.027.

Consider SSVSRIYTPSSL, for which the protein stability index is 0.677 ± 0.12.

SSVYLRRSCDHD registered a protein stability index of 0.699 ± 0.017.

Turning to SSWEMMLYRLTE, the protein stability index was found to be 0.693 ± 0.021.

In turn, STCRCGGFRNGS displayed a protein stability index of 0.762 ± 0.068.

STEHAPDLKSER returned a protein stability index of 0.695 ± 0.077.

Consider STEIHIKLNAWT, for which the protein stability index stood at 0.687 ± 0.082.

STGRLQLGNCLT had a protein stability index of 0.635 ± 0.015.

Take STLSSRLSLPYR: the protein stability index worked out at 0.728 ± 0.07.

For the sequence STPDIRYFPPWC, the protein stability index turned out to be 0.706 ± 0.027.

For STPLPPLSLPLF, the protein stability index was found to be 0.685 ± 0.016.

Consider STQDIRTTKRVA, for which the protein stability index worked out at 0.681 ± 0.077.

For STRTNPSYFTYQ, the protein stability index was 0.675 ± 0.013.

As to STTIRTPSGMFR, the protein stability index was 0.661 ± 0.0057.

STTPASLLGHVF showed a protein stability index of 0.6441 ± 0.0061.

Take STVLGPPLGLGT: the protein stability index was 0.69 ± 0.054.

In turn, STVPSLVAGATF came in with a protein stability index of 0.729 ± 0.11.

SVARGGGVVEWG had a protein stability index of 0.705 ± 0.13.

In turn, SVATFDLHAGEW returned a protein stability index of 0.75 ± 0.01.

The sequence SVAVTGSTLVLI returned a protein stability index of 0.628 ± 0.036.

The sequence SVCLRASSCFRS yielded a protein stability index of 0.648 ± 0.051.

For SVCPQALNLPPH, the protein stability index is 0.723 ± 0.043.

As for SVFSVVLSLSGS, the protein stability index is 0.706 ± 0.051.

For SVGGILWLMLEG, the protein stability index was 0.677 ± 0.044.

SVIFSRSFCCPS had a protein stability index of 0.639 ± 0.11.

Sequence SVLCRIGAGCAM registered a protein stability index of 0.629 ± 0.018.

The sequence SVLEGGRWGFTR showed a protein stability index of 0.758 ± 0.038.

Regarding SVLFDIGFSCRF, the protein stability index is 0.808 ± 0.026.

For SVLLRPPLLFHP, the protein stability index came out at 0.722 ± 0.019.

Consider SVLPELHAVPLF, for which the protein stability index worked out at 0.679 ± 0.008.

On to SVQWPITIEVWK, for which the protein stability index amounted to 0.631 ± 0.014.

For SVRFPPTFTMTL, the protein stability index came out at 0.701 ± 0.042.

On to SVSNSRCGRLML, for which the protein stability index was 0.71 ± 0.046.

Sequence SVSPRAPPILPP yielded a protein stability index of 0.723 ± 0.058.

The sequence SVSPRVSSLSPL yielded a protein stability index of 0.671 ± 0.013.

The sequence SVSRTARELREV showed a protein stability index of 0.65902 ± 0.00035.

For SVVGRLVGGFRW, the protein stability index amounted to 0.706 ± 0.021.

Take SVVSFIRRRSFL: the protein stability index came out at 0.8656 ± 0.0084.

Consider SVYLIRSLEALR, for which the protein stability index came out at 0.679 ± 0.019.

SWFCSWVVRFFR yielded a protein stability index of 0.691 ± 0.065.

Sequence SWLRPTCLDLYF showed a protein stability index of 0.76 ± 0.029.

Regarding SWSRAAYKGPWG, the protein stability index was determined as 0.702 ± 0.015.

SWTGDGWMWRRR registered a protein stability index of 0.658 ± 0.019.

In turn, SYESKPPLSWDS showed a protein stability index of 0.73 ± 0.11.

Turning to SYGIETRLKGKK, the protein stability index stood at 0.63 ± 0.082.

SYKSLGLVEFRV returned a protein stability index of 0.712 ± 0.054.

Sequence SYSSRSCALRVI registered a protein stability index of 0.533 ± 0.043.

In turn, TAGAYSLSTGNH had a protein stability index of 0.651 ± 0.024.

Take TALSPPVPTLPP: the protein stability index turned out to be 0.7 ± 0.013.

In turn, TARPDKDYPRLA registered a protein stability index of 0.678 ± 0.013.

The sequence TARPPSPPSTRL displayed a protein stability index of 0.732 ± 0.036.

In turn, TASLSPSHRFYS yielded a protein stability index of 0.66863 ± 0.00061.

Consider TATPQRQPHKSP, for which the protein stability index was found to be 0.706 ± 0.013.

On to TATRIPHTPIPL, for which the protein stability index was found to be 0.732 ± 0.037.

For the sequence TAVIRASRFEEI, the protein stability index turned out to be 0.672 ± 0.0055.

Regarding TAWVDSMVCMLL, the protein stability index was determined as 0.71 ± 0.034.

Turning to TCDSGSEDNVAA, the protein stability index was determined as 0.7053 ± 0.0032.

The sequence TCERGGQIKCRV came in with a protein stability index of 0.657 ± 0.058.

As for TCLWVCARGFGG, the protein stability index came out at 0.693 ± 0.021.

In the case of TCNWQGASSIIG, the protein stability index amounted to 0.6765 ± 0.0033.

With TDFAVTKDFTEI, the protein stability index is 0.683 ± 0.033.

In turn, TDTCLQDCLVFV had a protein stability index of 0.546 ± 0.039.

The sequence TECGKVGGGGEA registered a protein stability index of 0.689 ± 0.062.

TECGVRRGLVGR yielded a protein stability index of 0.651 ± 0.025.

With TEKTEAKNCNTK, the protein stability index amounted to 0.697 ± 0.0089.

Turning to TFLFARLSFCKH, the protein stability index came out at 0.613 ± 0.0071.

The sequence TFRADGYFFGRR registered a protein stability index of 0.637 ± 0.042.

On to TGCEVSINSCVE, for which the protein stability index is 0.656 ± 0.046.

In the case of TGDFFGGLGTWS, the protein stability index was 0.701 ± 0.016.

As for TGGESEPRDTIQ, the protein stability index stood at 0.701 ± 0.017.

The sequence TGKQNRYVKKEK registered a protein stability index of 0.6955 ± 0.0031.

In turn, TGLLLGLFGCML registered a protein stability index of 0.648 ± 0.068.
